Substrate in data set [1]: C[S+](CC[C@H](N)C(=O)[O-])C[C@H]1O[C@@H](n2cnc3c(N)ncnc32)[C@H](O)[C@@H]1O
Briefly: Radiometric EZ-tip methyltransferase assay, steady-state kinetics, SUV39H1. The note with it: other: SAM varied 0.1–100 μM, SUV39H1 100 nM, pH 7.9, 30 °C, 20 min, n = 3, SD. The data set is classed as biochemical.

Substrate in data set [2]: C[S+](CC[C@H](N)C(=O)[O-])C[C@H]1O[C@@H](n2cnc3c(N)ncnc32)[C@H](O)[C@@H]1O
Put plainly: Radiometric EZ-tip methyltransferase assay, steady-state kinetics, EHMT2. The note with it: other: SAM varied 0.1–100 μM, EHMT2 25 nM, pH 7.9, 30 °C, 20 min, n = 3, SD. In kind it is biochemical, H. sapiens.

Substrate in data set [3]: C[S+](CC[C@H](N)C(=O)[O-])C[C@H]1O[C@@H](n2cnc3c(N)ncnc32)[C@H](O)[C@@H]1O
Put plainly: Radiometric EZ-tip methyltransferase assay, steady-state kinetics, SUV39H2. In kind it is biochemical, H. sapiens. To be noted: other: SAM varied 0.1–100 μM, SUV39H2 25 nM, pH 7.9, 30 °C, 20 min, n = 3, SD.

Substrate in data set [4]: C[S+](CC[C@H](N)C(=O)[O-])C[C@H]1O[C@@H](n2cnc3c(N)ncnc32)[C@H](O)[C@@H]1O
Briefly: Radiometric EZ-tip methyltransferase assay, steady-state kinetics, EHMT1. The data set is classed as biochemical, H. sapiens. To be noted: other: SAM varied 0.1–100 μM, EHMT1 25 nM, pH 7.9, 30 °C, 20 min, n = 3, SD.

[5] abbreviates: fixed H3K9me1 peptide H3(1–17) 50 μM.
[6] abbreviates: fixed H3K9me2 peptide H3(1–17) 50 μM.
Setting [7] is: fixed H3K9un peptide H3(1–17) 50 μM.

What is called Km is the substrate concentration at which the rate is half of its maximum. For orientation: kcat means the number of substrate molecules converted per active site and unit of time at saturation. The term kcat/Km denotes the second-order rate constant that governs catalysis at low substrate concentration.

B1: SUV39H1 (Homo sapiens) (protein)
chain: MAENLKGCSVCCKSSWNQLQDLCRLAKLSCPALGISKRNLYDFEVEYLCDYKKIREQEYYLVKWRGYPDSESTWEPRQNLKCVRILKQFHKDLERELLRRHHRSKTPRHLDPSLANYLVQKAKQRRALRRWEQELNAKRSHLGRITVENEVDLDGPPRAFVYINEYRVGEGITLNQVAVGCECQDCLWAPTGGCCPGASLHKFAYNDQGQVRLRAGLPIYECNSRCRCGYDCPNRVVQKGIRYDLCIFRTDDGRGWGVRTLEKIRKNSFVMEYVGEIITSEEAERRGQIYDRQGATYLFDLDYVEDVYTVDAAYYGNISHFVNHSCDPNLQVYNVFIDNLDERLPRIAFFATRTIRAGEELTFDYNMQVDPVDMESTRMDSNFGLAGLPGSPKKRVRIECKCGTESCRKYLF
notes: made in house; host or cells: Rosetta E. coli (plasmid generated for this study)
As to B1, in data set [1] (setting [5]), the Michaelis-Menten constant (Km) amounted to 11.78 ± 3.85 µM, the kcat came out at 0.005 ± 0.000833 s⁻¹ and the kcat/Km amounted to 500 ± 167 M⁻¹ s⁻¹. For the same protein, in data set [1] (setting [6]), the Km was 3.60 ± 1.72 µM, the turnover number (kcat) turned out to be 0.0005 ± 0.000167 s⁻¹ and the catalytic efficiency (kcat/Km) came to 167 ± 50 M⁻¹ s⁻¹. Further, in data set [1] (setting [7]), the Km amounted to 4.52 ± 0.49 µM, the turnover number (kcat) amounted to 0.00717 ± 0.000667 s⁻¹ and the kcat/Km was determined as 1670 ± 333 M⁻¹ s⁻¹.

B2: EHMT2 catalytic domain (Homo sapiens) (protein)
chain: NRAIRTEKIICRDVARGYENVPIPCVNGVDGEPCPEDYKYISENCETSTMNIDRNITHLQHCTCVDDCSSSNCLCGQLSIRCWYDKDGRLLQEFNKIEPPLIFECNQACSCWRNCKNRVVQSGIKVRLQLYRTAKMGWGVRALQTIPQGTFICEYVGELISDAEADVREDDSYLFDLDNKDGEVYCIDARYYGNISRFINHLCDPNIIPVRVFMLHQDLRFPRIAFFSSRDIRTGEELGFDYGDRFWDIKSKYFTCQCGSEKCKHSAEAIALEQSRLARLD
notes: EHMT2 = 913 to 1193; made in house; host or cells: Rosetta E. coli (plasmid from the laboratory of Peter W. Lewis)
As to B2, in data set [2] (setting [5]), the Km amounted to 16.80 ± 2.69 µM, the kcat is 0.0358 ± 0.00383 s⁻¹ and the specificity constant (kcat/Km) turned out to be 2170 ± 167 M⁻¹ s⁻¹. In data set [2] (setting [6]), the Km was found to be 6.10 ± 1.0 µM, the kcat amounted to 0.0175 ± 0.00117 s⁻¹ and the kcat/Km is 2830 ± 500 M⁻¹ s⁻¹. For the same protein, in data set [2] (setting [7]), the Km was 19.21 ± 2.00 µM, the turnover number (kcat) turned out to be 0.127 ± 0.00183 s⁻¹ and the kcat/Km turned out to be 6670 ± 667 M⁻¹ s⁻¹.

B3: SUV39H2 catalytic domain (Homo sapiens) (protein)
chain: LEGPPSDFYYINEYKPAPGISLVNEATFGCSCTDCFFQKCCPAEAGVLLAYNKNQQIKIPPGTPIYECNSRCQCGPDCPNRIVQKGTQYSLCIFRTSNGRGWGVKTLVKIKRMSFVMEYVGEVITSEEAERRGQFYDNKGITYLFDLDYESDEFTVDAARYGNVSHFVNHSCDPNLQVFNVFIDNLDTRLPRIALFSTRTINAGEELTFDYQMKGSGDISSDSIDHSPAKKRVRTVCKCGAVTCRGYLN
notes: host or cells: Rosetta E. coli
For B3, in data set [3] (setting [5]), the Michaelis-Menten constant (Km) is 9.85 ± 1.21 µM, the kcat came to 0.059 ± 0.00383 s⁻¹ and the kcat/Km came to 6000 ± 500 M⁻¹ s⁻¹. In addition, in data set [3] (setting [6]), the Km was 8.18 ± 3.14 µM, the kcat worked out at 0.0703 ± 0.00583 s⁻¹ and the kcat/Km was 9170 ± 2500 M⁻¹ s⁻¹. Moreover, in data set [3] (setting [7]), the Km worked out at 4.70 ± 0.69 µM, the turnover number (kcat) came to 0.0668 ± 0.00567 s⁻¹ and the catalytic efficiency (kcat/Km) is 14300 ± 1330 M⁻¹ s⁻¹.

B4: EHMT1 catalytic domain (Homo sapiens) (protein)
chain: NSQVWSALQMSKALQDSAPDRPSPVERIVSRDIARGYERIPIPCVNAVDSEPCPSNYKYVSQNCVTSPMNIDRNITHLQYCVCIDDCSSSNCMCGQLSMRCWYDKDGRLLPEFNMAEPPLIFECNHACSCWRNCRNRVVQNGLRARLQLYRTRDMGWGVRSLQDIPPGTFVCEYVGELISDSEADVREEDSYLFDLDNKDGEVYCIDARFYGNVSRFINHHCEPNLVPVRVFMAHQDLRFPRIAFFSTRLIEAGEQLGFDYGERFWDIKGKLFSCRCGSPKCRHS
notes: EHMT1 = 982 to 1266; host or cells: Rosetta E. coli
As to B4, in data set [4] (setting [5]), the Km is 6.84 ± 1.81 µM, the kcat came to 0.0335 ± 0.0025 s⁻¹ and the specificity constant (kcat/Km) amounted to 5000 ± 833 M⁻¹ s⁻¹. In addition, in data set [4] (setting [6]), the Michaelis constant (Km) came out at 2.21 ± 0.65 µM, the kcat was 0.0112 ± 0.000333 s⁻¹ and the kcat/Km is 5330 ± 1330 M⁻¹ s⁻¹. Besides, in data set [4] (setting [7]), the Km is 13.51 ± 4.95 µM, the turnover number (kcat) was found to be 0.211 ± 0.0108 s⁻¹ and the kcat/Km was determined as 16800 ± 4500 M⁻¹ s⁻¹.

For the origin of these results see article PMC10404681, “Intrinsic catalytic properties of histone H3 lysine-9 methyltransferases preserve monomethylation levels under low S-adenosylmethionine” (The Journal of Biological Chemistry, 2023).
